Results as given in paper PMC3087838 (Nature structural & molecular biology, 2011).
Like-named read-outs stand apart in the source and are kept apart here.

T1: Full length WT Flag-hRXRα (human retinoid X receptor alpha) (human, UniProt P19793 1-462)
T1 sequence (looked up): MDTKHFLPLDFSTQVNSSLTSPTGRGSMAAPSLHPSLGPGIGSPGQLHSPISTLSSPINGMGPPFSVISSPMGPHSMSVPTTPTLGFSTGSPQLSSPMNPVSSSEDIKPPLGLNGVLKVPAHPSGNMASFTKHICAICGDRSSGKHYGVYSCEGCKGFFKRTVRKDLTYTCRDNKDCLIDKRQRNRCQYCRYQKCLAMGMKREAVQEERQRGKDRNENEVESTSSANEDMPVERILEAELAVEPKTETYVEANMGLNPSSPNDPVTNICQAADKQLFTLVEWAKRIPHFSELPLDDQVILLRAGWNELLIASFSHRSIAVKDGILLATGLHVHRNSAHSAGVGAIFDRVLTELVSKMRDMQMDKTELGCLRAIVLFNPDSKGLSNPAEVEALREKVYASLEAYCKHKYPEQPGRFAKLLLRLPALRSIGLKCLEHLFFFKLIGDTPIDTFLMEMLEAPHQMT

T2: RXRα-VDR heterodimer complex (full length His-hVDR with full length Flag-hRXRα) (human, UniProt P11473 1-427; P19793 1-462)
T2 sequence (looked up) 1: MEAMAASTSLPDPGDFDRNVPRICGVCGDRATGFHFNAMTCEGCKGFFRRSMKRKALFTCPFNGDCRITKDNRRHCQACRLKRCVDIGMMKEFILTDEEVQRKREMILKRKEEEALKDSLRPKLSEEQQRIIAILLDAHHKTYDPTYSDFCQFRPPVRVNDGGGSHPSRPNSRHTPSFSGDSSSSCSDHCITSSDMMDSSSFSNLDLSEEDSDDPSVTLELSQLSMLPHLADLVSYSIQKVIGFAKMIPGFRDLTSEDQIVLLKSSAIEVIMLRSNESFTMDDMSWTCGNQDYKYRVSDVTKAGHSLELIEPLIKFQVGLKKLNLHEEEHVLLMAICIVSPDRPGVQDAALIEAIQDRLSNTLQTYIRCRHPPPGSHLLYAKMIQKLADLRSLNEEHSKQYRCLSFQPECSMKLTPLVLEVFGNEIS
T2 sequence (looked up) 2: T1 sequence (looked up)

B1: His-hVDR LBD (residues 118-425, Δ[165-215]) (domain or fragment, human, UniProt P11473 118-425, looked up)
chain: DSLRPKLSEEQQRIIAILLDAHHKTYDPTYSDFCQFRPPVRVNDGGGSVTLELSQLSMLPHLADLVSYSIQKVIGFAKMIPGFRDLTSEDQIVLLKSSAIEVIMLRSNESFTMDDMSWTCGNQDYKYRVSDVTKAGHSLELIEPLIKFQVGLKKLNLHEEEHVLLMAICIVSPDRPGVQDAALIEAIQDRLSNTLQTYIRCRHPPPGSHLLYAKMIQKLADLRSLNEEHSKQYRCLSFQPECSMKLTPLVLEVFGNE
B2: His-hSRC1-RID (627-786) variant 1, receptor interacting domain of human steroid receptor coactivator 1 (domain or fragment, UniProt Q15788-1 627-786, looked up)
chain: SQTSHKLVQLLTTTAEQQLRHADIDTSCKDVLSCTGTSNSASANSSGGSCPSSHSSLTERHKILHRLLQEGSPSDITTLSVEPDKKDSASTSVSVTGQVQGNSSIKLELDASKKKESKDHQLLRYLLDKDEKDLRSTPNLSLDDVKVKVEKKEQMDPCNT
B3: Full length WT His-hVDR (human vitamin D receptor) (receptor, UniProt P11473 1-427, looked up)
chain: T2 sequence (looked up) 1

Assays:
Experiment in all cases: HDX-MS
[1] = target: T1, Full length WT Flag-hRXRα (human …)
[2] = target: T1, Full length WT Flag-hRXRα (human …); remark: listed apart in the source
[3] = target: T2, RXRα-VDR heterodimer complex (full …)
[4] = target: B3

Row | Binder | binding result [1] | binding result [2] | binding result [3] | binding result [4]
1 | B1 | binds | – | – | –
2 | B2 | – | binds | binds | binds
3 | B3 | binds | – | – | –
